Assays:
[1] = target: soluble complex of ¹²⁵I-IL-12 crosslinked to human IL-12R (human) (UniProt P29459); assay: immunoprecipitation of solubilized 125I-IL-12/IL-12R complex by immobilized control antibody (background)
[2] = target: recombinant human IL-12 receptor (clone No. 5, SEQ ID NO:2) expressed in COS cells (human); assay: equilibrium binding of labelled murine IL-12 to COS cells expressing clone 5, Scatchard, single site (Figure 19B)

Chain of soluble complex of ¹²⁵I-IL-12 crosslinked to human IL-12R (human) (P29459 23-219, form in doubt, chain 1 of 3, other chains not shown): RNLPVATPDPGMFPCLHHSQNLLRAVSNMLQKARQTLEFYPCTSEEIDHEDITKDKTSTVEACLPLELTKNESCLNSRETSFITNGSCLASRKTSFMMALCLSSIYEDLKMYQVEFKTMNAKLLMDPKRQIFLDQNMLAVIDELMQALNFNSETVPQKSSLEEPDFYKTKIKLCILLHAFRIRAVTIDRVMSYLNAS
Chain of soluble complex of ¹²⁵I-IL-12 crosslinked to human IL-12R (human) (P29460 23-328, form in doubt, chain 2 of 3, other chains not shown, further chain): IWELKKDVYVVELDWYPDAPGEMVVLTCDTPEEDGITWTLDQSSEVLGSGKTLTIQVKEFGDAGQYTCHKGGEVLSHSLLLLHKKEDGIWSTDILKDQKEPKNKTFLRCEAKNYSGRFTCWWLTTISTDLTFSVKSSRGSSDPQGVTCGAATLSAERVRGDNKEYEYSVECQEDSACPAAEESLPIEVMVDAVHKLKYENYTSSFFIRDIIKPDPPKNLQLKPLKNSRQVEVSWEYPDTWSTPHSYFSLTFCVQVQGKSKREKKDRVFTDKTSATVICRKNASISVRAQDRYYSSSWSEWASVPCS

I.P. ASSAY (cpm bound) [1]	Kd [2]	Substance
402 cpm	–	Control mAb (Table 1) (antibody)
–	2.1 nM	Recombinant murine IL-12 (from UniProt P43431 23-215; P43432 23-335) (ligand)
